Assay results as given in article PMC7026020.

How the values were obtained:
[1] = target: membrane FcγRIIIA (human) (UniProt P08637); experiment: flow cytometry on cells
[2] = target: membrane FcγRIIIA (human) (UniProt P08637); experiment: flow cytometry on cells; competition: CD16-transduced NK92 cells (2 x 10^4) incubated with FITC-conjugated anti-CD16 3G8 (1:100) and increasing concentrations of TmAbs or sc-TmAbs, 30 min at 4°C; percent inhibition of 3G8 binding

Chain of UniProt P08637 (P08637 17-208): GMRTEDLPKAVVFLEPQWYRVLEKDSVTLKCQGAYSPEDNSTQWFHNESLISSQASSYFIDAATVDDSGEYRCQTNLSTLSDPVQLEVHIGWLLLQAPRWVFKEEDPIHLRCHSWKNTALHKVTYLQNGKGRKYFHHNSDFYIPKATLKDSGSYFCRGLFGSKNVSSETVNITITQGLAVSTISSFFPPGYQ

Row | maximal percent inhibition of 3G8 binding (at 3 mg/mL) [1] [%] | maximal percent inhibition of 3G8 binding (at 3 mg/mL) [2] [%] | Substance
1 | 80 | – | cetuximab (antibody)
2 | – | 80 | infliximab (antibody)
3 | 80 | – | ipilimumab (antibody)
4 | 80 | – | rituximab (antibody)
5 | 80 | – | trastuzumab (antibody)
